Target: VipB (Vibrio cholerae)
Assay: cryo-EM structure

VipA (natural protein) showed a stoichiometry N of 1.
